# ± gives the uncertainty stated by the source.
# Experiment: protein stability index of a GFP-peptide fusion (yeast GPS) (PSI 1-4); higher = more stable; sorted into four equal gates, so the index is relative within each strain
# Procedure, shortened: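 Yeast carrying a pooled library were grown to mid-log phase in leucine-free medium. Each library plasmid expresses Cherry and has a tiled 17-residue yeast protein peptide fused downstream of GFP. Cells were sorted into four equal gates by GFP/Cherry ratio, and plasmids from each gate were PCR-amplified, Illumina-sequenced and assigned to strains by barcode. Summing, across gates, the read frequency times the gate number gave each peptide's protein stability index.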
Sequence,protein stability index (doa10∆),protein stability index (pdr5∆),protein stability index (san1∆),protein stability index (ubr1∆)
ISKQRTFAVILFLIIQC [YMR129W/POM152],1.38 ± 0.051,1.38 ± 0.067,1.32 ± 0.087,1.51 ± 0.058
HVLYKESKGNAFKHKRA [RPL19A],2.97 ± 0.079,2.49 ± 0.12,2.59 ± 0.08,2.46 ± 0.044
KERLTKEAAAVAEGKSK [RPL8A],3.53 ± 0.16,2.74 ± 0.22,3.31 ± 0.15,3.1 ± 0.16
DKLLDPTTVSYIFCISR [SCL1],2.97 ± 0.045,3.1 ± 0.06,3.181 ± 0.029,3.22 ± 0.051
HSDMASKMYNTDKKAFL [PRP8],2.91 ± 0.057,2.65 ± 0.056,2.89 ± 0.051,2.98 ± 0.059
MERLQRLMMNSKVGSAD [RPN11],3.28 ± 0.15,2.98 ± 0.17,3.42 ± 0.097,3.22 ± 0.12
MAYTSHLSSKTGLHFGR [QCR10],3.08 ± 0.16,2.78 ± 0.087,2.69 ± 0.089,2.76 ± 0.066
AISLGLLKGSIDQVNEL [RPN9],3.36 ± 0.098,3.08 ± 0.066,3.16 ± 0.095,3.21 ± 0.039
NYSSESYRNAFTNVLTK [YJL039C/NUP192],2.56 ± 0.047,2.38 ± 0.067,2.31 ± 0.067,2.48 ± 0.038
KSKREEEAKSVLPAATK [ARP9],1.1 ± 0.092,1.37 ± 0.067,1.29 ± 0.11,1.21 ± 0.054
SDINQNDDSSSMNATMR [YDL088C/ASM4],2.88 ± 0.09,2.98 ± 0.075,2.76 ± 0.073,2.69 ± 0.054
RGRSVMKESVVEINSSE [ESC2],3.15 ± 0.11,2.83 ± 0.14,3.09 ± 0.17,2.98 ± 0.1
REISNFSKGDADVLVDR [SRP72],3.22 ± 0.098,3.19 ± 0.096,3.03 ± 0.097,3.06 ± 0.079
LYLKVIPMDFIRNVLVT [SSN2],1.36 ± 0.094,1.11 ± 0.16,1.4 ± 0.23,1.29 ± 0.16
NEKRYATASAIAATAVA [RPL4A],2.29 ± 0.087,1.53 ± 0.056,1.74 ± 0.14,1.5 ± 0.066
APMRLATAALEIILKLC [YJL039C/NUP192],1.6 ± 0.064,2.06 ± 0.043,1.31 ± 0.087,2.4 ± 0.057
GFYQIKKIVDSKKLNLK [YMR129W/POM152],3.11 ± 0.12,2.98 ± 0.092,2.41 ± 0.24,2.62 ± 0.11
TRINGLNSNNSIIGNKN [REC8],3.2 ± 0.089,3.04 ± 0.072,3.21 ± 0.048,2.98 ± 0.051
VASSTNFTSPTAVVNNA [SWI1],2.64 ± 0.094,2.56 ± 0.12,2.48 ± 0.14,2.91 ± 0.069
YHGISKNDNIKKSVNKL [POP6],2.7 ± 0.064,2.75 ± 0.049,2.77 ± 0.05,2.85 ± 0.046
HKISFSGTKSEVLTYVN [YJL039C/NUP192],2.65 ± 0.093,2.49 ± 0.082,2.39 ± 0.11,2.7 ± 0.087
EVRRAAMLNLINDNNTR [YCG1],3.32 ± 0.12,3.41 ± 0.11,2.94 ± 0.11,3.13 ± 0.1
GGVPTTSFGQPQSAPNQ [YOR098C/NUP1],2.33 ± 0.071,1.99 ± 0.085,2.36 ± 0.11,2.15 ± 0.095
DFDLFKEVLPDLQNLNL [YJL039C/NUP192],3.44 ± 0.095,3.17 ± 0.11,3.19 ± 0.07,3.4 ± 0.16
GKIQENIPFWKHVGFEL [SRP72],2.65 ± 0.053,2.59 ± 0.055,2.37 ± 0.072,2.57 ± 0.035
ADDAISMHLLKDWTDTF [SRB8],3.12 ± 0.056,2.94 ± 0.058,2.94 ± 0.044,2.95 ± 0.065

Sequence,protein stability index (doa10∆),protein stability index (pdr5∆),protein stability index (san1∆),protein stability index (ubr1∆)
TPAFGSNNTGNTAFGNS [YJL041W/NSP1],2.85 ± 0.11,3.13 ± 0.081,3.28 ± 0.067,3.08 ± 0.049
TKIAQSQTMAETYVASY [ECM29],1.92 ± 0.037,2.48 ± 0.036,2.27 ± 0.044,2.22 ± 0.034
KEQENITIQDLLFPKST [DPB4],3.05 ± 0.1,2.64 ± 0.13,2.52 ± 0.087,2.75 ± 0.086
PLFFVDLKLLFNTEAEQ [RGR1],2.73 ± 0.077,2.83 ± 0.063,3.19 ± 0.085,3.14 ± 0.057
ETDHANTENNDPDIPMT [IRR1],2.74 ± 0.09,2.59 ± 0.066,2.81 ± 0.048,2.68 ± 0.07
NESSTFLKLVLSESPVD [SIN4],2.1 ± 0.041,1.95 ± 0.052,2.05 ± 0.073,2.02 ± 0.046
LATGPNLTSEIEDLRAD [YOR098C/NUP1],3.42 ± 0.11,3.25 ± 0.11,3.12 ± 0.06,3.25 ± 0.082
TEYCVGDYVAYQLNGVA [YMR129W/POM152],2.83 ± 0.14,3.1 ± 0.13,2.1 ± 0.23,2.52 ± 0.066
HKHREARGLTATGKKSR [RPL15A],3.58 ± 0.2,3.37 ± 0.15,3.31 ± 0.069,3.15 ± 0.068
FFPYYVHTIIAGLDEDG [PRE7],3.65 ± 0.15,3.31 ± 0.12,3.35 ± 0.092,3.26 ± 0.095
RFELHGDMTNSDAQSNL [REC8],2.93 ± 0.27,3.58 ± 0.13,2.9 ± 0.17,3.22 ± 0.095
IVGKSNVLVTMPVAPTM [YMR129W/POM152],2.66 ± 0.12,2.56 ± 0.08,2.07 ± 0.17,2.65 ± 0.055
REKALNEEAEARRLKNR [RPL19A],3.21 ± 0.075,3.15 ± 0.11,3.09 ± 0.095,3.24 ± 0.066
EIAGLSPYERRLIDLIR [RPL36A],2.31 ± 0.088,2.37 ± 0.077,2.02 ± 0.14,2.29 ± 0.071
IPVNKRRGAHGSELSSK [SIR3],3 ± 0.15,3.03 ± 0.15,3.11 ± 0.22,2.96 ± 0.19
NAVLGLGDMAVCFNNLV [YCS4],2.71 ± 0.097,3.32 ± 0.11,2.61 ± 0.098,2.68 ± 0.093
LARGLRESTKALTRGEA [RPS12],3.28 ± 0.14,3.65 ± 0.12,2.94 ± 0.24,3.37 ± 0.044
SLVEVVFYRGMTMQVAV [FAS1],1.32 ± 0.06,1.88 ± 0.059,1.4 ± 0.11,1.99 ± 0.12
LVPKRCLFESLSNEAAL [RPO31],–,2.84 ± 0.2,–,2.78 ± 0.22
ETGKLLSGLAQRKTNGA [BRN1],–,–,2.97 ± 0.11,–
QILQGICKNCSAILLSE [RPO31],2.17 ± 0.071,2.23 ± 0.061,2.26 ± 0.13,2.43 ± 0.069
GAIDEALEEAKLSDNIS [YDL116W/NUP84],3.17 ± 0.11,3.25 ± 0.091,3.41 ± 0.07,3.3 ± 0.045
MSAKAQNPMRDLKIEKL [RPL11A],3.39 ± 0.16,3.26 ± 0.11,3.46 ± 0.11,3.61 ± 0.24
GESEKSSDVDMDDEEWR [RPC53],3.7 ± 0.22,3.63 ± 0.21,3.35 ± 0.21,3.33 ± 0.18
AKKQNYKLTNDEEGIFS [YCG1],3.23 ± 0.098,3.45 ± 0.1,3.15 ± 0.074,3.19 ± 0.075
KTSKRTKRWYKNAGLGF [RPS11A],3.3 ± 0.091,2.84 ± 0.12,3.17 ± 0.11,3.4 ± 0.085

Sequence,protein stability index (doa10∆),protein stability index (pdr5∆),protein stability index (san1∆),protein stability index (ubr1∆)
ELTDKLSALNSEISSLK [SMC1],3.15 ± 0.11,2.76 ± 0.094,3.02 ± 0.074,2.89 ± 0.076
FLSKPSKALYPDYYMII [SNF2],2.31 ± 0.037,2.4 ± 0.045,2.19 ± 0.047,2.54 ± 0.035
IGGLIPQWKRHLEEYGY [YCS4],2.47 ± 0.068,2.83 ± 0.065,1.9 ± 0.14,2.9 ± 0.057
EATLLTNSNNGSSNNNT [SNF5],3 ± 0.087,3.32 ± 0.13,3.14 ± 0.1,3.21 ± 0.065
SLHNTEKIMENKYPELL [AAR2],2.94 ± 0.052,3.18 ± 0.058,3 ± 0.038,2.86 ± 0.034
YISNLLYGVTICYNKKT [REC8],1.22 ± 0.036,1.27 ± 0.048,1.3 ± 0.077,1.21 ± 0.03
EVFQLRIFVKEILEKCA [GAL11],2.29 ± 0.12,2.11 ± 0.12,2.19 ± 0.077,2.12 ± 0.19
SNTEPIPRSNRHGSVVE [MED1],2.23 ± 0.17,3.22 ± 0.23,2.72 ± 0.17,–
ELLDQVTLGREGQIIQR [CDC53],3.07 ± 0.14,3.73 ± 0.18,–,3.21 ± 0.19
PIPDARNAALRAKAEAA [SCL1],2.39 ± 0.14,2.69 ± 0.11,2.44 ± 0.13,2.34 ± 0.092
NPLADAEEALEPSYIFE [PRE4],3.09 ± 0.072,2.83 ± 0.077,3.08 ± 0.055,3.12 ± 0.06
KDERDTWIHSEIEELKS [SMC3],3.16 ± 0.18,3.02 ± 0.097,2.91 ± 0.25,3.19 ± 0.12
MRILPRETDPLVYNMTS [RPT4],3.07 ± 0.078,2.85 ± 0.065,3.18 ± 0.06,2.73 ± 0.057
DHLVSSIPMGGQSINDS [ARP9],2.78 ± 0.11,2.89 ± 0.093,3.08 ± 0.068,3.13 ± 0.1
VDIYSLPLISTDVLEIS [YMR129W/POM152],2.06 ± 0.052,2.58 ± 0.049,2.43 ± 0.045,2.44 ± 0.044
LDEMELHPYNSRGLFEK [YDL116W/NUP84],3.23 ± 0.094,3.04 ± 0.1,2.86 ± 0.076,3.22 ± 0.063
EPKQKANAVQNNNGNSA [SRP21],3.07 ± 0.083,3.24 ± 0.07,2.85 ± 0.19,3.24 ± 0.12
SKDIETLKKEWLKEYED [YIL149C/MLP2],3.34 ± 0.093,3.16 ± 0.085,3.26 ± 0.053,3.15 ± 0.051
PFGVSTIFGGVDKNGAH [PRE10],3.06 ± 0.076,2.98 ± 0.069,2.73 ± 0.12,2.97 ± 0.049
DLKLLFNTEAEQTVSAV [RGR1],2.84 ± 0.088,2.93 ± 0.085,3.33 ± 0.11,3.19 ± 0.066
QLAVANEIIRSLSDEVM [SIR4],3.16 ± 0.077,3 ± 0.081,2.59 ± 0.12,3.21 ± 0.087
TQHKVTQYKAGKASLFA [RPL42A],3.29 ± 0.076,3.04 ± 0.062,2.99 ± 0.059,2.96 ± 0.068
TMLENITLRGVENIERV [RPO21],3.23 ± 0.12,2.86 ± 0.1,2.82 ± 0.12,2.69 ± 0.058
NQSAYEWNGKSFQKKSN [ISW2],3.16 ± 0.11,3.12 ± 0.17,3.09 ± 0.064,2.99 ± 0.13
SVVHPGEMVGVLAAQSI [RPO21],1.29 ± 0.13,1.81 ± 0.089,–,1.26 ± 0.06

# — the supplement of paper PMC9732359
